According to patent US20170183415A1 (Novartis, published 2017):

How the values were obtained:
[1] = target: T1, human CD123-Fc (human, UniProt P26951 19-305, limits assumed); assay: flow cytometry of transduced T cells (day 10) stained with human CD123-Fc, then anti-human Fc PE; unit not given
T1 construct: Staining reagent; not shown: Fc part
T1 sequence (looked up): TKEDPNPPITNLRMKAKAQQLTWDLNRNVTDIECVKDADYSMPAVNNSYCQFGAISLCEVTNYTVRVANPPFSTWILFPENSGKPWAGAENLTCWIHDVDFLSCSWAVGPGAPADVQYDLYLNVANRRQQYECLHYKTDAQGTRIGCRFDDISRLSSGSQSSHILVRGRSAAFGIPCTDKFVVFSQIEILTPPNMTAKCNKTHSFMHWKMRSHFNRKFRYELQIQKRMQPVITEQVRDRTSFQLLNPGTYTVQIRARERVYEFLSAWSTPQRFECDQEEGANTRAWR
Description: To detect the transduction efficiency and level of expression of each construct, transduced T cells on day 10 of expansion were stained with (i) Alexa fluor 647 goat anti-mouse F(ab) reagent, (ii) FITC goat anti-human F(ab), or (iii) human CD123-Fc primary followed by anti-human Fc PE.

[2] = target: T2, immobilized CD123 (UniProt P26951 19-305, limits assumed); assay: ELISA, soluble scFv on immobilized CD123
T2 construct: also called IL-3Rα; IL3Rα
T2 sequence (looked up): T1 sequence (looked up)

B1: CAR 5 - Full (humanized CD123 CAR) (other)
chain: QIQLVQSGSELKKPGASVKVSCKASGYIFTNYGMNWVRQAPGQGLEWMGWINTYTGESTYSADFKGRFVFSLDTSVSTAYLQINALKAEDTAVYYCARSGGYDPMDYWGQGTTVTVSSGGGGSGGGGSGGGGSGGGGSDIVLTQSPDSLAVSLGERATINCRASESVDNYGNTFMHWYQQKPGQPPKLLIYRASNLESGVPDRFSGSGSRTDFTLTISSLQAEDVAVYYCQQSNEDPPTFGQGTKLEIKTTTPAPRPPTPAPTIASQPLSLRPEACRPAAGGAVHTRGLDFACDIYIWAPLAGTCGVLLLSLVITLYCKRGRKKLLYIFKQPFMRPVQTTQEEDGCSCRFPEEEEGGCELRVKFSRSADAPAYKQGQNQLYNELNLGRREEYDVLDKRRGRDPEMGGKPRRKNPQEGLYNELQKDKMAEAYSEIGMKGERRRGKGHDGLYQGLSTATKDTYDALHMQALPPR
notes: Chimeric antigen receptor on transduced human T cells; also called GW86-29RB
- Expression by CD123-Fc [1]: 46.1

B2: CAR 7 Full (humanized CD123 CAR) (other)
chain: QIQLVQSGAEVKKPGASVKVSCKASGYIFTNYGMNWVRQAPGQRLEWMGWINTYTGESTYSADFKGRVTITLDTSASTAYMELSSLRSEDTAVYYCARSGGYDPMDYWGQGTTVTVSSGGGGSGGGGSGGGGSGGGGSDIVLTQSPDSLAVSLGERATINCRASESVDNYGNTFMHWYQQKPGQPPKLLIYRASNLESGVPDRFSGSGSRTDFTLTISSLQAEDVAVYYCQQSNEDPPTFGQGTKLEIKTTTPAPRPPTPAPTIASQPLSLRPEACRPAAGGAVHTRGLDFACDIYIWAPLAGTCGVLLLSLVITLYCKRGRKKLLYIFKQPFMRPVQTTQEEDGCSCRFPEEEEGGCELRVKFSRSADAPAYKQGQNQLYNELNLGRREEYDVLDKRRGRDPEMGGKPRRKNPQEGLYNELQKDKMAEAYSEIGMKGERRRGKGHDGLYQGLSTATKDTYDALHMQALPPR
notes: Chimeric antigen receptor on transduced human T cells; also called WW88-24LB
- Expression by CD123-Fc [1]: 51

B3: CAR 8 - Full (humanized CD123 CAR) (other)
chain: QIQLVQSGAEVKKPGASVKVSCKASGYIFTNYGMNWVRQAPGQRLEWMGWINTYTGESTYSADFKGRVTITLDTSASTAYMELSSLRSEDTAVYYCARSGGYDPMDYWGQGTTVTVSSGGGGSGGGGSGGGGSGGGGSEIVLTQSPATLSLSPGERATLSCRASESVDNYGNTFMHWYQQKPGQAPRLLIYRASNLESGIPARFSGSGSRTDFTLTISSLEPEDVAVYYCQQSNEDPPTFGQGTKLEIKTTTPAPRPPTPAPTIASQPLSLRPEACRPAAGGAVHTRGLDFACDIYIWAPLAGTCGVLLLSLVITLYCKRGRKKLLYIFKQPFMRPVQTTQEEDGCSCRFPEEEEGGCELRVKFSRSADAPAYKQGQNQLYNELNLGRREEYDVLDKRRGRDPEMGGKPRRKNPQEGLYNELQKDKMAEAYSEIGMKGERRRGKGHDGLYQGLSTATKDTYDALHMQALPPR
notes: Chimeric antigen receptor on transduced human T cells; also called UL69-05CC
- Expression by CD123-Fc [1]: 73.2

B4: CD123 CAR 1172 (mouse anti-human CD123 CAR, scFv 32716 light-to-heavy, CD8 hinge, 4-1BB, CD3zeta) (other)
chain: GSDIVLTQSPASLAVSLGQRATISCRASESVDNYGNTFMHWYQQKPGQPPKLLIYRASNLESGIPARFSGSGSRTDFTLTINPVEADDVATYYCQQSNEDPPTFGAGTKLELKGGGGSGGGGSSGGGSQIQLVQSGPELKKPGETVKISCKASGYIFTNYGMNWVKQAPGKSFKWMGWINTYTGESTYSADFKGRFAFSLETSASTAYLHINDLKNEDTATYFCARSGGYDPMDYWGQGTSVTVSSASSGTTTPAPRPPTPAPTIASQPLSLRPEACRPAAGGAVHTRGLDFACDIYIWAPLAGTCGVLLLSLVITLYCKRGRKKLLYIFKQPFMRPVQTTQEEDGCSCRFPEEEEGGCELRVKFSRSADAPAYKQGQNQLYNELNLGRREEYDVLDKRRGRDPEMGGKPRRKNPQEGLYNELQKDKMAEAYSEIGMKGERRRGKGHDGLYQGLSTATKDTYDALHMQALPPR
notes: Chimeric antigen receptor expressed on human T cells; also called C1172; clone 72
- Expression by CD123-Fc [1]: 32.3

B5: parent mouse scFv (anti-CD123, clone 32716) (scFv)
scFv: DIVLTQSPASLAVSLGQRATISCRASESVDNYGNTFMHWYQQKPGQPPKLLIYRASNLESGIPARFSGSGSRTDFTLTINPVEADDVATYYCQQSNEDPPTFGAGTKLELKGGGGSGGGGSSGGGSQIQLVQSGPELKKPGETVKISCKASGYIFTNYGMNWVKQAPGKSFKWMGWINTYTGESTYSADFKGRFAFSLETSASTAYLHINDLKNEDTATYFCARSGGYDPMDYWGQGTSVTVSS
notes: also called mouse Ctrl scFv
- EC50 [2]: 1.1 to 2.6 nM

B6: 109375 CAR6 - Full (humanized CD123 CAR) (other)
chain: QIQLVQSGSELKKPGASVKVSCKASGYIFTNYGMNWVRQAPGQGLEWMGWINTYTGESTYSADFKGRFVFSLDTSVSTAYLQINALKAEDTAVYYCARSGGYDPMDYWGQGTTVTVSSGGGGSGGGGSGGGGSGGGGSEIVLTQSPATLSLSPGERATLSCRASESVDNYGNTFMHWYQQKPGQAPRLLIYRASNLESGIPARFSGSGSRTDFTLTISSLEPEDVAVYYCQQSNEDPPTFGQGTKLEIKTTTPAPRPPTPAPTIASQPLSLRPEACRPAAGGAVHTRGLDFACDIYIWAPLAGTCGVLLLSLVITLYCKRGRKKLLYIFKQPFMRPVQTTQEEDGCSCRFPEEEEGGCELRVKFSRSADAPAYKQGQNQLYNELNLGRREEYDVLDKRRGRDPEMGGKPRRKNPQEGLYNELQKDKMAEAYSEIGMKGERRRGKGHDGLYQGLSTATKDTYDALHMQALPPR
notes: Chimeric antigen receptor; also called MW89-29GB
- Expression by CD123-Fc [1]: 0.64
